For three proteins, Km and kcat results are on record in patent publication US5766896A, “Method of producing iodine by use of a copper containing oxidase enzyme” (Novo Nordisk Biotech Inc., priority 1994, dated 1998).

Substrate in series [1]: CCn1c(=NN=c2sc3cc(S(=O)(=O)O)ccc3n2CC)sc2cc(S(=O)(=O)O)ccc21
Briefly: purified protein, by the assay type.

Substrate in series [2]: COc1cc(C=NN=Cc2cc(OC)c(O)c(OC)c2)cc(OC)c1O
Put plainly: r-MtL syringaldazine oxidation. The format is biochemical, Myceliophthora thermophila. As to conditions: other: optimal pH (7); 30.0 °C.

[3] abbreviates: other: from dependence of I^- oxidation rates on ABTS concentration, 20.0 °C.
[4] abbreviates: other: optimal pH of 4.1, pH 4.1, 30.0 °C.

B1: recombinant Myceliophthora thermophila laccase (r-MtL) (Thermothelomyces thermophilus ATCC 42464) (protein)
chain: QQSCNTPSNRACWTDGYDINTDYEVDSPDTGVVRPYTLTLTEVDNWTGPDGVVKEKVMLVNRPTIFADWGDTIQVTVINNLETNGTSIHWHGLHQKGTNLHDGANGITECPIPPKGGRKVYRFKAQQYGTSWYHSHFSAQYGNGVVGAIQINGPASLPYDTDLGVFPISDYYYSSADELVELTKNSGAPFSDNVLFNGTAKHPETGEGEYANVTLTPGRRHRLRLINTSVENHFQVSLVNHTMTIIAADMVPVNAMTVDSLFLGVGQRYDVVIEASRTPGNYWFNVTFGGGLLCGGSRNPYPAAIFHYAGAPGGPPTDEGKAPVDHNCLDLPNLKPVVARDVPLSGFAKRPDNTLDVTLDTTGTPLFVWKVNGSAINIDWGRPVVDYVLTQNTSFPPGYNIVEVNGADQWSYWLIENDPGAPFTLPHPMHLHGHDFYVLGRSPDESPASNERHVFDPARDAGLLSGANPVRRDVTMLPAFGWVVLAFRADNPGAWLFHCHIAWHVSGGLGVVYLERADDLRGAVSDADADDLDRLCADWRHYWPTNPYPKSDSGL
With B1, the Michaelis constant (Km) – broadly, the concentration of substrate that gives half-maximal velocity – came out at 6.4 ± 0.8 µM in series [1] (setting [3]); 5.6 ± 0.5 µM in series [1] (other: pH 4.1, pH 4.1); 10 µM in series [2]. Also, the kcat is reported as 860±40 turnover per minute in series [1] (setting [3]); 1460±31 turnover per minute in series [1] (other: pH 4.1, pH 4.1); 400 turnover per minute in series [2].

B2: bilirubin oxidase (Myrothecium verrucaria) (Albifimbria verrucaria) (protein)
chain: VAQISPQYPMFTVPLPIPPVKQPRLTVTNPVNGQEIWYYEVEIKPFTHQVYPDLGSADLVGYDGMSPGPTFQVPRGVETVVRFINNAEAPNSVHLHGSFSRAAFDGWAEDITEPGSFKDYYYPNRQSARTLWYHDHAMHITAENAYRGQAGLYMLTDPAEDALNLPSGYGEFDIPMILTSKQYTANGNLVTTNGELNSFWGDVIHVNGQPWPFKNVEPRKYRFRFLDAAVSRSFGLYFADTDAIDTRLPFKVIASDSGLLEHPADTSLLYISMAERYEVVFDFSDYAGKTIELRNLGGSIGGIGTDTDYDNTDKVMRFVVADDTTQPDTSVVPANLRDVPFPSPTTNTPRQFRFGRTGPTWTINGVAFADVQNRLLANVPVGTVERWELINAGNGWTHPIHIHLVDFKVISRTSGNNARTVMPYESGLKDVVWLGRRETVVVEAHYAPFPGVYMFHCHNLIHEDHDMMAAFNATVLPDYGYNATVFVDPMEELWQARPYELGEFQAQSGQFSVQAVTERIQTMAEYRPYAAADE
As to B2, in series [1] (setting [4]), the Michaelis constant (Km) came to 120 ± 10 µM and the kcat is 1310±40 turnover per minute.

B3: ceruloplasmin (porcine plasma) (Sus scrofa) (protein)
chain: KDKHYYIGIVETTWDYASDRGEKKLISVDKEQSNIYLQNGPNRIGRLYKKAIYLQYTDETFRTIIEKPVWLGFLGPIIKAETGDRVYVHFKNFASRPYTFHAHGMTYYKEHEGAIYPDNTTDFQKADDKVHPGEQYTYILHANPEQGPGKEDSNCVTRIYHSHIDAPKDIASGLIGPLIHCRKDSLDKEKEKNIDQEFVVMFSVVDENLSWYLEDNIKTYCSEPEKVEPDNEDFKESNRMYSVNGYSFGSLPGLSMCAEDRVKWYLFGMGNEIDVHAAFFHGQVLTNKNYRIDTINLFPATLFDAFMVAQNPGEWMLSCQNLNHLKAGLQAFFRVQDCKKTSSEDAIHGKHVRHYYIAAEEIIWNYAPSGIDTFTKENLTAPGSASEVFFTRGSTRIGGSYKKLVYREYKDASFTNRKERGPEEEHLGILGPVIWAEVGDTIRVTFRNKGAYPLSIEPTGVRVSKSQEGTYYASHYISSSENVPPSASHVAPKETFTYEWTVPKEVGPTYKDPVCLTKMYYSAVDPTKDIFTGLIGPMKICKKGSLLANGRLKDVDKEFYLFPTVFDENESLLLDDNIQMFTTEPNKVDKENEDFQESNKMHSMNGFMYGNQPGLNMCQGDSVVWYLFSAGNEVDVHGIYFSGNTYLSRGERRDTANLFPQTSLRLFMQPDTAGTFDVECLTTDHYTGGMKQKYTVNQCKQLNENSYLYLGERTYYIAAVEVEWDYSPSREWEKELHHSQERNVSNAFLDKGEFYIGSKYKKVVYRQFTDSTFQVPVQRKAKEEHLGILGPQLHADVGDKVNIVFKNTATRPYSIHAHGVKTESPTVIPTVPGETRTYVWKIPERSGAGIDDSPCIPWVYYSTVDQVKDLYSGLIGPLIVCRKPYLKVFNPIKNLEFSLLFLVFDENESWYLDDNIKTYSDHPEKVDKANDEFIESNKMHAINGRMFGNLQGLTMHVGDEVNWYLMGMGNEIDLHTVHFHGHSFQYQHRGIYTSDVFDIFPGTYQTLEMFPKTSGTWLLHCHVTDHIHAGMETTYTVLPNEETKSG
Turning to B3, in series [1] (other: pH 4.1, pH 4.1, 30.0 °C), the Km turned out to be 110 ± 40 µM and the kcat worked out at 9.3±1.3 turnover per minute.
